Source: patent US20200087416A1 (Innovent, published 2020)
Numbering of substitutions follows the chain as printed. Each block holds one binder with its values, some of them ahead of it.

Key:
[1] = molecular target: T1, human PCSK9 (PCSK9 antigen, SEQ ID NO. 53) (human, UniProt A8T644 31-152; Q8NBP7 153-692, Biotin-labelled on amines in the MSD-SET and sorting experiments; positions not given.); assay: cell-based or functional assay
[2] = molecular target: T1, human PCSK9 (PCSK9 antigen, SEQ ID NO. …); assay: cell-based or functional assay; remark: listed apart in the source
[3] = molecular target: T1, human PCSK9 (PCSK9 antigen, SEQ ID NO. …); assay: BLI (ForteBio), IgG on AHQ sensor, 100 nM antigen
murine PCSK-9 [4] = molecular target: T2, murine PCSK-9 (murine, UniProt Q80W65 35-694); assay: BLI (ForteBio), IgG on AHQ sensor, 100 nM antigen
T2 construct: also called mouse PCSK9

[5] = molecular target: T1, human PCSK9 (PCSK9 antigen, SEQ ID NO. …); assay: flow cytometry, PCSK9 left on CHO-LDLR cells (anti-His-FITC) after premix with 1 nM antibody
[6] = molecular target: T1, human PCSK9 (PCSK9 antigen, SEQ ID NO. …); assay: flow cytometry, PCSK9 left on CHO-LDLR cells (anti-His-FITC) after premix with 10 nM antibody
[7] = molecular target: T1, human PCSK9 (PCSK9 antigen, SEQ ID NO. …); assay: flow cytometry, PCSK9 left on CHO-LDLR cells (anti-His-FITC) after premix with 0.1 nM antibody
[8] = molecular target: T1, human PCSK9 (PCSK9 antigen, SEQ ID NO. …); assay: flow cytometry, PCSK9 left on CHO-LDLR cells (anti-His-FITC) after premix with 100 nM antibody
[9] = molecular target: T1, human PCSK9 (PCSK9 antigen, SEQ ID NO. …); assay: flow cytometry, PCSK9 left on CHO-LDLR cells (anti-His-FITC) after premix with 1000 nM antibody
[10] = molecular target: T1, human PCSK9 (PCSK9 antigen, SEQ ID NO. …); assay: MSD-SET, Fab with biotin-PCSK9 in solution, IgG on plate, pH 6.0
[11] = molecular target: T1, human PCSK9 (PCSK9 antigen, SEQ ID NO. …); assay: MSD-SET, Fab with biotin-PCSK9 in solution, IgG on plate, pH 7.4
murine PCSK-9 [12] = molecular target: T2, murine PCSK-9; assay: as above
[13] = molecular target: T1, human PCSK9 (PCSK9 antigen, SEQ ID NO. …); assay: ForteBio method and MSD-SET assay, as the sentence says; end tied to ADI-10085 by Table 2
Wherever BODIPY-LDL uptake by HepG2 cells, fluorescence, 16.8 nM, replicate 1 is given: unit not given here.
Wherever BODIPY-LDL uptake by HepG2 cells, fluorescence, 16.8 nM, replicate 2 is given: unit not given here.
Wherever BODIPY-LDL uptake by HepG2 cells, fluorescence, 4.2 nM, replicate 1 is given: unit not given here.
Wherever BODIPY-LDL uptake by HepG2 cells, fluorescence, 4.2 nM, replicate 2 is given: unit not given here.
Wherever BODIPY-LDL uptake by HepG2 cells, fluorescence, 66.7 nM, replicate 1 is given: unit not given here.
Wherever BODIPY-LDL uptake by HepG2 cells, fluorescence, 66.7 nM, replicate 2 is given: unit not given here.

B1: ADI-10085 (antibody, human IgG2, kappa, V domains shown)
VH: QLQLQESGPGLVKPSETLSLTCTVSGGSIVSSSYYWAWIRQPPGKGLEWIGSINYKGSTYYNPSLKSRVTISVDTSKNQFSLKLSSVTAADTAVYYCARENSGVVPAAGPNWFGPWGQGTLVTVSS
VL: EIVLTQSPATLSLSPGERATLSCRASQSVSSYLAWYQQKPGQAPRLLIYDASNRATGIPARFSGSGSGTDFTLTISSLEPEDFAVYYCQQRRNWFTFGGGTKVEIKR
notes: IgG
- fluorescence of BODIPY-LDL in HepG2 cells against no anti-PCSK9 antibody [1]: ~2 times
- BODIPY-LDL uptake by HepG2 cells, fluorescence, 4.2 nM, replicate 1 [2]: 0.423
- BODIPY-LDL uptake by HepG2 cells, fluorescence, 4.2 nM, replicate 2 [2]: 0.435
- BODIPY-LDL uptake by HepG2 cells, fluorescence, 16.8 nM, replicate 1 [2]: 0.78
- BODIPY-LDL uptake by HepG2 cells, fluorescence, 16.8 nM, replicate 2 [2]: 0.742
- BODIPY-LDL uptake by HepG2 cells, fluorescence, 66.7 nM, replicate 1 [2]: 0.749
- BODIPY-LDL uptake by HepG2 cells, fluorescence, 66.7 nM, replicate 2 [2]: 0.797
- Kd [3]: 0.295 nM
- Kd (murine PCSK-9 [4]): 0.544 nM
- Fluorescence Signal Value [5]: 8910
- Fluorescence Signal Value [6]: 5680
- Fluorescence Signal Value [7]: 10400
- Fluorescence Signal Value [8]: 5090
- Fluorescence Signal Value [9]: 5700

B2: ADI-10088 Fab (Fab, V domains shown)
VH: B1 VH with V30G, K56R, G114D
VL: B1 VL
- Kd [10]: 0.016 nM
- Kd [11]: 0.01 nM
- Kd (murine PCSK-9 [12]): 0.087 nM

B3: ADI-10085 Fab (Fab, V domains shown)
VH: B1 VH
VL: B1 VL
- Kd [10]: 0.0059 nM
- Kd [11]: 0.0042 nM
- Kd (murine PCSK-9 [12]): 0.041 nM
- Kd [13]: 0.004 nM

B4: ADI-09111 Fab (Fab, V domains shown)
VH: B1 VH with V30S, A37G, N54Y, K56S, G114D
VL: B1 VL
- Kd [10]: 1.9 nM
- Kd [11]: 0.7 nM
- Kd (murine PCSK-9 [12]): 3.5 nM

B7: ADI-10086 Fab (Fab, V domains shown)
VH: B1 VH with V30R, S33A, A37G, K56R
VL: B1 VL
- Kd [10]: 0.013 nM
- Kd [11]: 0.0086 nM
- Kd (murine PCSK-9 [12]): 0.06 nM

B8: ADI-09113 Fab (Fab, V domains shown)
VH: B1 VH with I29V, V30S, A37G, I53A, N54Y, K56S, G114D
VL: B1 VL
- Kd [10]: 0.65 nM
- Kd [11]: 0.17 nM
- Kd (murine PCSK-9 [12]): 0.76 nM

B9: ADI-10087 (antibody, human IgG2, kappa, V domains shown)
VH: B1 VH with V30S, S32A, A37S, K56R
VL: B1 VL
notes: also called anti-PCSK antibody of the invention
- fluorescence of BODIPY-LDL in HepG2 cells against no anti-PCSK9 antibody [1]: ~2 times
- BODIPY-LDL uptake by HepG2 cells, fluorescence, 4.2 nM, replicate 1 [2]: 0.37
- BODIPY-LDL uptake by HepG2 cells, fluorescence, 4.2 nM, replicate 2 [2]: 0.403
- BODIPY-LDL uptake by HepG2 cells, fluorescence, 16.8 nM, replicate 1 [2]: 0.72
- BODIPY-LDL uptake by HepG2 cells, fluorescence, 16.8 nM, replicate 2 [2]: 0.683
- BODIPY-LDL uptake by HepG2 cells, fluorescence, 66.7 nM, replicate 1 [2]: 0.758
- BODIPY-LDL uptake by HepG2 cells, fluorescence, 66.7 nM, replicate 2 [2]: 0.775
- Kd [3]: 0.296 nM
- Kd (murine PCSK-9 [4]): 0.558 nM
- Fluorescence Signal Value [5]: 6480
- Fluorescence Signal Value [6]: 5740
- Fluorescence Signal Value [7]: 6860
- Fluorescence Signal Value [8]: 5260
- Fluorescence Signal Value [9]: 5090

B11: ADI-09112 Fab (Fab, V domains shown)
VH: B1 VH with V30S, A37G, N54Y, K56S, S64F
VL: B1 VL
- Kd [11]: 0.22 nM
- Kd (murine PCSK-9 [12]): 1.2 nM

More lines, now with the values ahead:

- fluorescence of BODIPY-LDL in HepG2 cells against no anti-PCSK9 antibody [1]: ~2 times
- BODIPY-LDL uptake by HepG2 cells, fluorescence, 4.2 nM, replicate 1 [2]: 0.357
- BODIPY-LDL uptake by HepG2 cells, fluorescence, 4.2 nM, replicate 2 [2]: 0.401
- BODIPY-LDL uptake by HepG2 cells, fluorescence, 16.8 nM, replicate 1 [2]: 0.574
- BODIPY-LDL uptake by HepG2 cells, fluorescence, 16.8 nM, replicate 2 [2]: 0.561
- BODIPY-LDL uptake by HepG2 cells, fluorescence, 66.7 nM, replicate 1 [2]: 0.706
- BODIPY-LDL uptake by HepG2 cells, fluorescence, 66.7 nM, replicate 2 [2]: 0.752
- Kd [3]: 0.471 nM
- Kd (murine PCSK-9 [4]): 0.855 nM
- Fluorescence Signal Value [5]: 6830
- Fluorescence Signal Value [6]: 5830
- Fluorescence Signal Value [7]: 6800
- Fluorescence Signal Value [8]: 5160
- Fluorescence Signal Value [9]: 5220
B5: ADI-10088 (antibody, human IgG2, kappa, V domains shown)
VH: B1 VH with V30G, K56R, G114D
VL: B1 VL
notes: IgG

- Kd [10]: 0.01 nM
- Kd [11]: 0.011 nM
- Kd (murine PCSK-9 [12]): 0.07 nM
B6: ADI-10089 Fab (Fab, V domains shown)
VH: B1 VH with V30G, A37T, K56R, G114D
VL: B1 VL

- Kd [10]: 0.0098 nM
- Kd [11]: 0.005 nM
- Kd (murine PCSK-9 [12]): 0.041 nM
B10: ADI-10087 Fab (Fab, V domains shown)
VH: B1 VH with V30S, S32A, A37S, K56R
VL: B1 VL

- fluorescence of BODIPY-LDL in HepG2 cells against no anti-PCSK9 antibody [1]: ~2 times
- BODIPY-LDL uptake by HepG2 cells, fluorescence, 4.2 nM, replicate 1 [2]: 0.38
- BODIPY-LDL uptake by HepG2 cells, fluorescence, 4.2 nM, replicate 2 [2]: 0.399
- BODIPY-LDL uptake by HepG2 cells, fluorescence, 16.8 nM, replicate 1 [2]: 0.712
- BODIPY-LDL uptake by HepG2 cells, fluorescence, 16.8 nM, replicate 2 [2]: 0.706
- BODIPY-LDL uptake by HepG2 cells, fluorescence, 66.7 nM, replicate 1 [2]: 0.774
- BODIPY-LDL uptake by HepG2 cells, fluorescence, 66.7 nM, replicate 2 [2]: 0.741
- Kd [3]: 0.311 nM
- Kd (murine PCSK-9 [4]): 0.589 nM
- Fluorescence Signal Value [5]: 6500
- Fluorescence Signal Value [6]: 5640
- Fluorescence Signal Value [7]: 6890
- Fluorescence Signal Value [8]: 5140
- Fluorescence Signal Value [9]: 5330
B12: ADI-10089 (antibody, human IgG2, kappa, V domains shown)
VH: B1 VH with V30G, A37T, K56R, G114D
VL: B1 VL
notes: IgG

- Kd [10]: 0.021 nM
- Kd [11]: 0.017 nM
- Kd (murine PCSK-9 [12]): 0.12 nM
B13: ADI-10090 Fab (Fab, V domains shown)
VH: B1 VH with V30W, A37T, K56R, G114D
VL: B1 VL

- BODIPY-LDL uptake by HepG2 cells, fluorescence, 4.2 nM, replicate 1 [2]: 0.351
- BODIPY-LDL uptake by HepG2 cells, fluorescence, 4.2 nM, replicate 2 [2]: 0.36
- BODIPY-LDL uptake by HepG2 cells, fluorescence, 16.8 nM, replicate 1 [2]: 0.355
- BODIPY-LDL uptake by HepG2 cells, fluorescence, 16.8 nM, replicate 2 [2]: 0.363
- BODIPY-LDL uptake by HepG2 cells, fluorescence, 66.7 nM, replicate 1 [2]: 0.724
- BODIPY-LDL uptake by HepG2 cells, fluorescence, 66.7 nM, replicate 2 [2]: 0.778
- Kd [3]: 1.03 nM
- Kd (murine PCSK-9 [4]): 114 nM
- Fluorescence Signal Value [5]: 6810
- Fluorescence Signal Value [6]: 5780
- Fluorescence Signal Value [7]: 6990
- Fluorescence Signal Value [8]: 5100
- Fluorescence Signal Value [9]: 4800
B14: Evolocumab (antibody, V domains shown)
VH: QVQLVQSGAEVKKPGASVKVSCKASGYTLTSYGISWVRQAPGQGLEWMGWVSFYNGNTNYAQKLQGRGTMTTDPSTSTAYMELRSLRSDDTAVYYCARGYGMDVWGQGTTVTVSS
VL: QSALTQPASVSGSPGQSITISCTGTSSDVGGYNSVSWYQQHPGKAPKLMIYEVSNRPSGVSNRFSGSKSGNTASLTISGLQAEDEADYYCNSYTSTSMVFGGGTKLTVL
